Data: paper PMC9916421

Biological target: DrMoaE (MoaE of Deinococcus radiodurans, large subunit of MPT synthase) (Deinococcus radiodurans)
Assay: SEC; gel filtration profiles of DrMoaE and DrMoaER110A; standard curve from aprotinin, RNaseA, chymotrypsinogen A, ovalbumin and BSA

Question: “DrMoaE (MoaE of Deinococcus radiodurans, large subunit of MPT synthase) (natural protein)” was tested. Which stoichiometry N did it give?
Answer: The stoichiometry N was 2.
